Read-outs that look alike come from different tables or passages of the source.
Columns and labels:
[1] = biological target: T1, Recombinant human Avi_PCSK9_Flag_His (human, UniProt Q8NBP7 31-692, biotinylated in the HTRF and LDL-R competition assays); assay: HTRF epitope competition: unlabelled compound titrated against a DyLight 650-labelled anti-PCSK9 antibody for biotinylated human PCSK9; % specific binding [panel A]
T1 construct: In-house protein; also called human PCSK9; huPCSK9

[2] = biological target: T1, Recombinant human Avi_PCSK9_Flag_His; assay: HTRF epitope competition: unlabelled compound titrated against a DyLight 650-labelled anti-PCSK9 antibody for biotinylated human PCSK9; % specific binding [panel E]
[3] = biological target: T1, Recombinant human Avi_PCSK9_Flag_His; assay: HTRF epitope competition: unlabelled compound titrated against a DyLight 650-labelled anti-PCSK9 antibody for biotinylated human PCSK9; % specific binding [panel F]
[4] = biological target: T1, Recombinant human Avi_PCSK9_Flag_His; assay: HTRF epitope competition: unlabelled compound titrated against a DyLight 650-labelled anti-PCSK9 antibody for biotinylated human PCSK9; % specific binding
[5] = biological target: T1, Recombinant human Avi_PCSK9_Flag_His; assay: HTRF epitope competition: unlabelled compound titrated against a DyLight 650-labelled anti-PCSK9 antibody for biotinylated human PCSK9; % specific binding [panel A]; remark: listed apart in the source
[6] = biological target: T1, Recombinant human Avi_PCSK9_Flag_His; assay: HTRF epitope competition: unlabelled compound titrated against a DyLight 650-labelled anti-PCSK9 antibody for biotinylated human PCSK9; % specific binding [panel C]
[7] = biological target: T1, Recombinant human Avi_PCSK9_Flag_His; assay: HTRF epitope competition: unlabelled compound titrated against a DyLight 650-labelled anti-PCSK9 antibody for biotinylated human PCSK9; % specific binding [panel E]; remark: listed apart in the source
[8] = biological target: T1, Recombinant human Avi_PCSK9_Flag_His; assay: HTRF epitope competition: unlabelled compound titrated against a DyLight 650-labelled anti-PCSK9 antibody for biotinylated human PCSK9; % specific binding [panel F]; remark: listed apart in the source
[9] = biological target: T1, Recombinant human Avi_PCSK9_Flag_His
[10] = biological target: T1, Recombinant human Avi_PCSK9_Flag_His; assay: binding ELISA: human PCSK9 coated at 10 ug/mL, compound at 100 ug/mL, detection with cryptate-labelled Fc-specific anti-human IgG; fluorescence counts
[11] = biological target: T1, Recombinant human Avi_PCSK9_Flag_His; assay: binding ELISA on coated human PCSK9 (10 ug/mL), compound at 100 ug/mL, detection with cryptate labelled Fc specific anti human IgG
[12] = biological target: T2, recombinant human B7-H1 (in house) (human, UniProt Q9NZQ7 19-238, limits assumed); assay: binding ELISA on coated human B7-H1 (5 ug/mL), compound at 10 ug/mL, detection with cryptate labelled Fc specific anti human IgG
[13] = biological target: T2, recombinant human B7-H1 (in house); assay: binding ELISA on coated human B7-H1 (5 ug/mL), compound at 10 ug/mL, detection with cryptate labelled Fc specific anti human IgG; positive control

T2 sequence (Q9NZQ7 19-238 limits assumed): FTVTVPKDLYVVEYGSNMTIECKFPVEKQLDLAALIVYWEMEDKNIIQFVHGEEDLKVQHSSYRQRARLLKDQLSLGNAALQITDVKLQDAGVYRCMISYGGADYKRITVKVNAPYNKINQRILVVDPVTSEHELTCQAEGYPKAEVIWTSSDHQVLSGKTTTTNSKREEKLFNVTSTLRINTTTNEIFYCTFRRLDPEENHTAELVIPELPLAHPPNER

B1: PC9#1 GLP-1 analogue light chain fusion (antibody, IgG1)
VH: QVQLVQSGAEVKKPGASVKVSCKASGYTFTSYYMHWVRQAPGQGLEWMGEISPFGGRTNYNEKFKSRVTMTRDTSTSTVYMELSSLRSEDTAVYYCARERPLYASDLWGQGTTVTVSS
VL: HGEGTFTSDVSSYLEEQAAKEFIAWLVKGGGGGGGSGGGGSGGGGSADIQMTQSPSSLSASVGDRVTITCRASQGISSALAWYQQKPGKAPKLLIYSASYRYTGVPSRFSGSGSGTDFTFTISSLQPEDIATYYCQQRYSLWRTFGQGTKLEIK
notes: IgG1-TM; peptide-linker at the N-terminus of VL; descriptive name; also called light chain peptide antibody fusion of PC9#1
Question: How did the “IC50 (read off the curve)” value [1] turn out when B1 was run?
Answer: The value was roughly 0.1 nM.

B2: PC9#5 GLP-1 analogue heavy chain fusion (antibody, IgG1)
VH: HGEGTFTSDVSSYLEEQAAKEFIAWLVKGGGGGGGSGGGGSGGGGSAEMQLVESGGGLVQPGGSLRLSCAASGFTFSSHWMKWVRQAPGKGLEWVANINQDGSEKYYVDSVKGRFTISRDNAKNSLFLQMNSLRAEDTAVYYCARDIVLMVYDMDYYYYGMDVWGQGTTVTVSS
VL: not shown
notes: IgG1-TM; descriptive name; also called heavy chain peptide antibody fusion of PC9#5
Question: For B2, which “IC50 (read off the curve)” value [2] is on record?
Answer: The value was roughly 0.1 nM.

B3: PC9#6 GLP-1 analogue heavy chain fusion (antibody, IgG1)
VH: HGEGTFTSDVSSYLEEQAAKEFIAWLVKGGGGGGGSGGGGSGGGGSAQVQLVQSGAEVKKPGSSVKVSCKASGGTFNSHAISWVRQAPGQGLEWMGGINPILGIANYAQKFQGRVTITADESTSTAYMELSSLRSEDTAVYYCARHYEIQIGRYGMNVYYLMYRFASWGQGTLVTVSS
VL: DIQMTQSPSSLSASVGDRVTITCRASQGIRSALNWYQQKPGKAPKLLIYNGSTLQSGVPSRFSGSGSGTDFTLTISSLQPEDFAVYYCQQFDGDPTFGQGTKVEIK
notes: IgG1-TM; descriptive name; also called heavy chain peptide antibody fusion of PC9#6
Question: With B3 as the binder, how does the “IC50 (read off the curve)” value [3] read?
Answer: Its value is roughly 0.6 nM.

B4: PC9#7 GLP-1 analogue heavy chain fusion (antibody, IgG1)
VH: HGEGTFTSDVSSYLEEQAAKEFIAWLVKGGGGGGGSGGGGSGGGGSAQVQLVQSGAEVKKPGESLKISCKGSGYSFTNYWISWVRQMPGKGLEWMGIIYPGDSYTNYSPSFQGQVTISADKSISTAYLQWSSLKASDTAMYYCARDYWYKPLFDIWGQGTLVTVSS
VL: not shown
notes: IgG1-TM; descriptive name; also called heavy chain peptide antibody fusion of PC9#7
Question: For B4, which “IC50 (read off the curve)” value [4] is on record?
Answer: Its value is roughly 0.1 nM.

B5: PC9#1 GLP-1 analogue heavy chain fusion (antibody, IgG1)
VH: HGEGTFTSDVSSYLEEQAAKEFIAWLVKGGGGGGGSGGGGSGGGGSAQVQLVQSGAEVKKPGASVKVSCKASGYTFTSYYMHWVRQAPGQGLEWMGEISPFGGRTNYNEKFKSRVTMTRDTSTSTVYMELSSLRSEDTAVYYCARERPLYASDLWGQGTTVTVSS
VL: DIQMTQSPSSLSASVGDRVTITCRASQGISSALAWYQQKPGKAPKLLIYSASYRYTGVPSRFSGSGSGTDFTFTISSLQPEDIATYYCQQRYSLWRTFGQGTKLEIK
notes: IgG1-TM; peptide-linker at the N-terminus of VH; also called heavy chain peptide antibody fusion of PC9#1
Question: With B5 as the binder, how does the “IC50 (read off the curve)” value [5] read?
Answer: Its value is roughly 0.06 nM.

B6: PC9#3 GLP-1 analogue light chain fusion (antibody, IgG1)
VH: EVQLVESGGGLVQPGGSLRLSCAASGFTFNNYAMNWVRQAPGKGLDWVSTISGSGGTTNYADSVKGRFIISRDSSKHTLYLQMNSLRAEDTAVYYCAKDSNWGNFDLWGRGTLVTVSS
VL: HGEGTFTSDVSSYLEEQAAKEFIAWLVKGGGGGGGSGGGGSGGGGSADIVMTQSPDSLAVSLGERATINCKSSQSVLYRSNNRNFLGWYQQKPGQPPNLLIYWASTRESGVPDRFSGSGSGTDFTLTISSLQAEDVAVYYCQQYYTTPYTFGQGTKLEIK
notes: IgG1-TM; descriptive name; also called light chain peptide antibody fusion of PC9#3
Question: B6 was tested. Which “IC50 (read off the curve)” value [6] did it give?
Answer: The value was roughly 0.4 nM.

B7: PC9#5 GLP-1 analogue light chain fusion (antibody, IgG1, V domains shown)
VH: EMQLVESGGGLVQPGGSLRLSCAASGFTFSSHWMKWVRQAPGKGLEWVANINQDGSEKYYVDSVKGRFTISRDNAKNSLFLQMNSLRAEDTAVYYCARDIVLMVYDMDYYYYGMDVWGQGTTVTVSS
VL: not shown
notes: IgG1-TM; descriptive name; also called light chain peptide antibody fusion of PC9#5
Question: With B7 as the binder, how does the “IC50 (read off the curve)” value [7] read?
Answer: Its value is roughly 6 nM.

B8: PC9#6 GLP-1 analogue light chain fusion (antibody, IgG1)
VH: QVQLVQSGAEVKKPGSSVKVSCKASGGTFNSHAISWVRQAPGQGLEWMGGINPILGIANYAQKFQGRVTITADESTSTAYMELSSLRSEDTAVYYCARHYEIQIGRYGMNVYYLMYRFASWGQGTLVTVSS
VL: HGEGTFTSDVSSYLEEQAAKEFIAWLVKGGGGGGGSGGGGSGGGGSADIQMTQSPSSLSASVGDRVTITCRASQGIRSALNWYQQKPGKAPKLLIYNGSTLQSGVPSRFSGSGSGTDFTLTISSLQPEDFAVYYCQQFDGDPTFGQGTKVEIK
notes: IgG1-TM; descriptive name; also called light chain peptide antibody fusion of PC9#6
Question: Does B8 bind [8]?
Answer: Result: binds

B9: PC9#7 GLP-1 analogue light chain fusion (antibody)
VH: QVQLVQSGAEVKKPGESLKISCKGSGYSFTNYWISWVRQMPGKGLEWMGIIYPGDSYTNYSPSFQGQVTISADKSISTAYLQWSSLKASDTAMYYCARDYWYKPLFDIWGQGTLVTVSS
VL: HGEGTFTSDVSSYLEEQAAKEFIAWLVKGGGGGGGSGGGGSGGGGSADIVMTQSPDSLAVSLGERATINCRSSQSVLYSSNNKNYLAWYQQKPGQPPKLLIYWASTRESGVPDRFSGSGSGTDFTLTISSLQAEDVAVYYCQQYSSFPITFGQGTKVEIK
Question: How did the “IC50 (read off the curve)” value [9] turn out when B9 was run?
Answer: Its value is roughly 1 nM.

B10: HS9_DSB7_V19A_L2 (antibody, IgG1)
VH: QVQLVQSGAEVKKPGASVKVSCKASGYTFTSYYMHWVRQAPGQGLEWMGEISPSGGSTSYNQKFQGRVTMTRDTSTSTVYMELSSLRSEDTAVYYCARERPLYASDLWGQGTTVTVSS
light: not shown
Question: Does B10 bind [10]?
Answer: Result: binds

B11: HS9_DSB7_V19A_L1 (antibody, IgG1)
VH: QVQLVQSGAEVKKPGASVKVSCKASGYTFTSYYMHWVRQAPGQGLEWMGEISPSGGSTSYNQKFQGRVTMTRDTSTSTVYMELSSLRSEDTAVYYCARERPLYASDLWGQGTTVTVSS
light: not shown
notes: VH see m27; IgG1-TM
Question: Does B11 bind [10]?
Answer: Result: binds

B12: HS9_DSB7_V19A_L0 (antibody, IgG1)
VH: QVQLVQSGAEVKKPGASVKVSCKASGYTFTSYYMHWVRQAPGQGLEWMGEISPSGGSTSYNQKFQGRVTMTRDTSTSTVYMELSSLRSEDTAVYYCARERPLYASDLWGQGTTVTVSS
light: not shown
notes: VH see m27; IgG1-TM
Question: Does B12 bind [10]?
Answer: Result: binds

B13: PC9#3_DSB7_V19A (antibody, IgG1)
VH: EVQLVESGGGLVQPGGSLRLSCAASGFTFNNYAMNWVRQAPGKGLDWVSTISGSGGTTNYADSVKGRFIISRDSSKHTLYLQMNSLRAEDTAVYYCAKDSNWGNFDLWGRGTLVTVSS
VL: HGEGTFTSDLSKQMEEECARLFIEWLKNGGPSSGAPPPGCGGGGGSGGGGSGGGGSADIVMTQSPDSLAVSLGERATINCKSSQSVLYRSNNRNFLGWYQQKPGQPPNLLIYWASTRESGVPDRFSGSGSGTDFTLTISSLQAEDVAVYYCQQYYTTPYTFGQGTKLEIK
notes: IgG1-TM
Question: Does B13 bind [11]?
Answer: Result: binds

B14: PC9#5_DSB7_V19A (antibody, IgG1, V domains shown)
VH: EMQLVESGGGLVQPGGSLRLSCAASGFTFSSHWMKWVRQAPGKGLEWVANINQDGSEKYYVDSVKGRFTISRDNAKNSLFLQMNSLRAEDTAVYYCARDIVLMVYDMDYYYYGMDVWGQGTTVTVSS
VL: not shown
notes: IgG1-TM
Question: Does B14 bind [11]?
Answer: Result: binds

B15: Fusion 2.7A4 DSB7 V19A (antibody)
VH: EVQLVESGGGLVKPGGSLRLSCAASGFTFSTYSMNWVRQAPGKGLEWVSSISSSGDYIYYADSVKGRFTISRDNAKNSLYLQMNSLRAEDTAVYYCARDLVTSMVAFDYWGQGTLVTVSS
VL: HGEGTFTSDLSKQMEEECARLFIEWLKNGGPSSGAPPPGCGGGGGSGGGGSGGGGSASYELTQPPSVSVSPGQTARITCSGDALPQKYVFWYQQKSGQAPVLVIYEDSKRPSGIPERFSGSSSGTMATLTISGAQVEDEADYYCYSTDRSGNHRVFGGGTKLTVL
notes: Peptide-linker on the light chain of the anti-B7-H1 antibody
Question: Does B15 bind [12]?
Answer: Result: binds

B16: anti-B7-H1 antibody 2.7A4 (antibody, V domains shown)
VH: EVQLVESGGGLVKPGGSLRLSCAASGFTFSTYSMNWVRQAPGKGLEWVSSISSSGDYIYYADSVKGRFTISRDNAKNSLYLQMNSLRAEDTAVYYCARDLVTSMVAFDYWGQGTLVTVSS
VL: SYELTQPPSVSVSPGQTARITCSGDALPQKYVFWYQQKSGQAPVLVIYEDSKRPSGIPERFSGSSSGTMATLTISGAQVEDEADYYCYSTDRSGNHRVFGGGTKLTVL
Question: Does B16 bind [13]?
Answer: Result: binds

Source: US20160369010A1 (AstraZeneca / MedImmune, published 2016)
